Holding throughout (conditions): protein: recombinant; tags: Nano-His6-TEV tag cleaved
The target in data set [1] is T1, KLF4 DBD (human, UniProt O43474 418-513). Description: EMSA; Zn2+; DBD up to 15 uM; EMSA: 20 mM Tris pH 8, 50 mM NaCl, 5% glycerol, 0.01 mg/ml BSA, 0.1 mM DTT, 0.05 mM TCEP; gel run at 4 C; protein refolded with 3.3 eq ZnSO4. Background: Mobility shift assays separate free from complexed probe on a gel.
Data set [2] concerns the target T1, KLF4 DBD. Kind of data set: X-ray crystallography; Zn2+; 2.14 A, 1:1 complex; EMSA: 20 mM Tris pH 8, 50 mM NaCl, 5% glycerol, 0.01 mg/ml BSA, 0.1 mM DTT, 0.05 mM TCEP; gel run at 4 C; protein refolded with 3.3 eq ZnSO4.
In data set [3] the target is T1, KLF4 DBD. Kind of data set: EMSA; Zn2+; 1 uM DNA, 0-6 uM DBD; 3:1 complex at 3 equivalents, tighter than NANK; EMSA: 20 mM Tris pH 8, 50 mM NaCl, 5% glycerol, 0.01 mg/ml BSA, 0.1 mM DTT, 0.05 mM TCEP; gel run at 4 C; protein refolded with 3.3 eq ZnSO4.
For data set [4], the target named is T1, KLF4 DBD. Kind of data set: EMSA; Zn2+; 1 uM DNA, 0-6 uM DBD; 1:1, 2:1 and 3:1 complexes, 3:1 needs 6 equivalents; EMSA: 20 mM Tris pH 8, 50 mM NaCl, 5% glycerol, 0.01 mg/ml BSA, 0.1 mM DTT, 0.05 mM TCEP; gel run at 4 C; protein refolded with 3.3 eq ZnSO4.

This is an account of results in PMC8458463, “Liquid condensation of reprogramming factor KLF4 with DNA provides a mechanism for chromatin organization”.

T1 sequence (O43474 418-513): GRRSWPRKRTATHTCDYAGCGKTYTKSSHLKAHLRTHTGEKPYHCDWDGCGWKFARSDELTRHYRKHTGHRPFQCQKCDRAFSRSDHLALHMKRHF

B1: NKB (dsDNA)
DNA 1: TGCCCGCCAGGA
DNA 2: TCCTGGCGGGCA
Consider B1, for which the binding result in data set [1] is “binds”.

B2: NKC (dsDNA)
DNA 1: GAGGGGTGGGTC
DNA 2: GACCCACCCCTC
With B2, in data set [1], the binding result is “binds”.

B3: NKA (dsDNA)
DNA 1: AGGGGGTGTGCC
DNA 2: GGCACACCCCCT
On to B3, for which the binding result in data set [2] is listed as “binds”.

B4: NANKm (dsDNA)
DNA 1: AGGGGGTGTGCCCGCCAGGAGGGGTGGGTC
DNA 2: GACCCACCCCTCCTGGCGGGCACACCCCCT
modifications: 5-methyl-dC at position 13 of strand 1 (CpG in KLFB); complement strand methylation not stated
B4: the binding result in data set [3] is reported as “binds”.

B5: NANK (dsDNA)
DNA 1: B4 DNA 1
DNA 2: B4 DNA 2
As to B5, the binding result in data set [4] is “binds”.
